The values that follow come from article PMC5342555, “ATAD2 is an epigenetic reader of newly synthesized histone marks during DNA replication” (Oncotarget, 2016).

The subject of assay [1] is MCF7 cells. In words: EdU incorporation (DNA replication) by flow cytometry. Type of assay: cell-based. The following applies: MCF7 overexpressing tagGFP-tagged ATAD2, gated by tagGFP; mean ± SEM, n = 3 independent experiments. The method, then: informed consent was obtained (Indivumed, Hamburg, by incubating cells with primary antibodies for 1 h at Germany; Asterand, Detroit USA; Provitro Berlin, RT followed by labelling with secondary antibodies Germany) of different indications. Immunohistochemistry conjugated with Alexa488 or Alexa647 for 30 min at was performed using EnVision System-HRP (DAB) from RT in dark. For analysis of TagGFP-ATAD2 expressing Dako (K4006 and K4010). Prior to immunostaining the cells GFP was stained by GFP antibody to enhance the slides were deparaffinized and rehydrated in xylene and fluorescence signal. DNA was stained by DAPI at 1 μg/ graded ethanol to distilled water. Antigen was retrieved by ml for 10 min at RT. For EdU (5-ethynyl-2'-deoxyuridine) incubating the tissue in boiling Target Retrieval Solution labelling cells were incubated in 10 μM EdU for 2h at 37 pH 6.0 (Dako S2031) for 40 min and letting them cool °C prior to fixation and staining was carried out according […]
Peroxidase-Block for 15 min at RT the slides were washed Fluor® 647 Flow Cytometry Assay Kit, ThermoFisher). twice in washing buffer (PBS with 0.05 % Tween 20) and Cells were analyzed by flow cytometry using a BD LSR incubated with primary antibodies in Antibody-Diluent II. All imaging and quantifications were performed using […]
(Dako S2022) for 90 min at RT. […]
Immunofluorescence of cells were saved for whole cell extract and the rest was subjected for subsequent fractionation. Whole cell extract […]
and fixed in 2 % FA for 10 min at RT. […] The image series were imported in Fiji and 100 % MeOH for 10 min at – 20 °C and incubated in average fluorescence was in the bleached region (F(t)ROI), […]

Assay [2] concerns MCF7 cells. In words: Fluorescence recovery after photobleaching (FRAP). It counts as cell-based. As to conditions: TagGFP-tagged ATAD2 in MCF7, FRAP, 20 images; mean ± SEM. The procedure: Immunofluorescence of cells were saved for whole cell extract and the rest was subjected for subsequent fractionation. Whole cell extract
Cells were grown on Matrigel-coated coverslips and was prepared by incubating cells in ice-cold RIPA buffer fixed in 4 % formaldehyde in PBS for 15 min at RT or in (25 mM Tris·HCl pH 7.6, 150 mM NaCl, 1 % NP-40, 1 100 % methanol for 7 min at -20 °C. After removing the % sodium deoxycholate, 0.1 % SDS) supplemented with residual FA or methanol by washing in PBS cells were protease inhibitor cocktail (Roche) for 10 min on ice and permeabilized in blocking solution (10 % goat serum sonicated at medium power, 0.5 intervals in BIORUPTOR and 0.3 % Triton X-100 in PBS) for 10 min at RT and for 3 min at 4 °C. Soluble lysate was recovered by incubated with primary antibodies in blocking solution. removing insoluble fractions after centrifugation at 20000 Following the removal of unbound antibodies by washing x g for 10 min 5 to 20 μg of lysates were used for SDS gel in PBS cells were incubated with secondary antibodies electrophoresis and Western blot. conjugated with Alexa Fluor 488, 555 or 647 (Invitrogen), washed and mounted on slides in presence of DAPI for Fluorescence recovery after photobleaching visualization of nucleus. Images were acquired using an (FRAP) inverted Zeiss LSM700 confocal microscope using a 488 nm Diode-Pumped Solid State Laser with a 63X, 1.3 N.A. FRAP experiment was performed as previously oil-immersion objective. For EdU labelling cells were described with minor modifications. […]
and fixed in 2 % FA for 10 min at RT. […] The image series were imported in Fiji and 100 % MeOH for 10 min at – 20 °C and incubated in average fluorescence was in the bleached region (F(t)ROI), stain buffer with 5 % normal goat serum for 10 min at the total cell nucleus (F(t)total) and a background (F(t)BG) RT for blocking. Then indirect staining was performed were determined. The relative fluorescence intensity

B1: WT: TagGFP-tagged WT ATAD2 expressed in MCF7 cells (protein)
chain: MVVLRSSLELHNHSAASATGSLDLSSDFLSLEHIGRRRLRSAGAAQKKPAATTAKAGDGSSVKEVETYHRTRALRSLRKDAQNSSDSSFEKNVEITEQLANGRHFTRQLARQQADKKKEEHREDKVIPVTRSLRARNIVQSTEHLHEDNGDVEVRRSCRIRSRYSGVNQSMLFDKLITNTAEAVLQKMDDMKKMRRQRMRELEDLGVFNETEESNLNMYTRGKQKDIQRTDEETTDNQEGSVESSEEGEDQEHEDDGEDEDDEDDDDDDDDDDDDDDEDDEDEEDGEEENQKRYYLRQRKATVYYQAPLEKPRHQRKPNIFYSGPASPARPRYRLSSAGPRSPYCKRMNRRRHAIHSSDSTSSSSSEDEQHFERRRKRSRNRAINRCLPLNFRKDELKGIYKDRMKIGASLADVDPMQLDSSVRFDSVGGLSNHIAALKEMVVFPLLYPEVFEKFKIQPPRGCLFYGPPGTGKTLVARALANECSQGDKRVAFFMRKGADCLSKWVGESERQLRLLFDQAYQMRPSIIFFDEIDGLAPVRSSRQDQIHSSIVSTLLALMDGLDSRGEIVVIGATNRLDSIDPALRRPGRFDREFLFSLPDKEARKEILKIHTRDWNPKPLDTFLEELAENCVGYCGADIKSICAEAALCALRRRYPQIYTTSEKLQLDLSSINISAKDFEVAMQKMIPASQRAVTSPGQALSTVVKPLLQNTVDKILEALQRVFPHAEFRTNKTLDSDISCPLLESDLAYSDDDVPSVYENGLSQKSSHKAKDNFNFLHLNRNACYQPMSFRPRILIVGEPGFGQGSHLAPAVIHALEKFTVYTLDIPVLFGVSTTSPEETCAQVIREAKRTAPSIVYVPHIHVWWEIVGPTLKATFTTLLQNIPSFAPVLLLATSDKPHSALPEEVQELFIRDYGEIFNVQLPDKEERTKFFEDLILKQAAKPPISKKKAVLQALEVLPVAPPPEPRSLTAEEVKRLEEQEEDTFRELRIFLRNVTHRLAIDKRFRVFTKPVDPDEVPDYVTVIKQPMDLSSVISKIDLHKYLTVKDYLRDIDLICSNALEYNPDRDPGDRLIRHRACALRDTAYAIIKEELDEDFEQLCEEIQESRKKRGCSSSKYAPSYYHVMPKQNSTLVGDKRSDPEQNEKLKTPSTPVACSTPAQLKRKIRKKSNWYLGTIKKRRKISQAKDDSQNAIDHKIESDTEETQDTSVDHNETGNTGESSVEENEKQQNASESKLELRNNSNTCNIENELEDSRKTTACTELRDKIACNGDASSSQIIHISDENEGKEMCVLRMTRARRSQVEQQQLITVEKALAILSQPTPSLVVDHERLKNLLKTVVKKSQNYNIFQLENLYAVISQCIYRHRKDHDKTSLIQKMEQEVENFSCSR
modifications: left off: tagGFP, end not stated, kept
notes: TagGFP-tagged WT ATAD2 expressed in MCF7 cells
Turning to B1, in the assay on MCF7 cells [1], the “EdU incorporation (normalized to control)” value worked out at 0.75 ± 0.03. For the same molecule, the “half recovery time (recovery t1/2)” value with MCF7 cells [2] turned out to be 17.740 s.

B2: ATPase mut: TagGFP-tagged ATPase mutant ATAD2 (K473T, E532Q) expressed in MCF7 cells (protein)
chain: MVVLRSSLELHNHSAASATGSLDLSSDFLSLEHIGRRRLRSAGAAQKKPAATTAKAGDGSSVKEVETYHRTRALRSLRKDAQNSSDSSFEKNVEITEQLANGRHFTRQLARQQADKKKEEHREDKVIPVTRSLRARNIVQSTEHLHEDNGDVEVRRSCRIRSRYSGVNQSMLFDKLITNTAEAVLQKMDDMKKMRRQRMRELEDLGVFNETEESNLNMYTRGKQKDIQRTDEETTDNQEGSVESSEEGEDQEHEDDGEDEDDEDDDDDDDDDDDDDDEDDEDEEDGEEENQKRYYLRQRKATVYYQAPLEKPRHQRKPNIFYSGPASPARPRYRLSSAGPRSPYCKRMNRRRHAIHSSDSTSSSSSEDEQHFERRRKRSRNRAINRCLPLNFRKDELKGIYKDRMKIGASLADVDPMQLDSSVRFDSVGGLSNHIAALKEMVVFPLLYPEVFEKFKIQPPRGCLFYGPPGTGTTLVARALANECSQGDKRVAFFMRKGADCLSKWVGESERQLRLLFDQAYQMRPSIIFFDQIDGLAPVRSSRQDQIHSSIVSTLLALMDGLDSRGEIVVIGATNRLDSIDPALRRPGRFDREFLFSLPDKEARKEILKIHTRDWNPKPLDTFLEELAENCVGYCGADIKSICAEAALCALRRRYPQIYTTSEKLQLDLSSINISAKDFEVAMQKMIPASQRAVTSPGQALSTVVKPLLQNTVDKILEALQRVFPHAEFRTNKTLDSDISCPLLESDLAYSDDDVPSVYENGLSQKSSHKAKDNFNFLHLNRNACYQPMSFRPRILIVGEPGFGQGSHLAPAVIHALEKFTVYTLDIPVLFGVSTTSPEETCAQVIREAKRTAPSIVYVPHIHVWWEIVGPTLKATFTTLLQNIPSFAPVLLLATSDKPHSALPEEVQELFIRDYGEIFNVQLPDKEERTKFFEDLILKQAAKPPISKKKAVLQALEVLPVAPPPEPRSLTAEEVKRLEEQEEDTFRELRIFLRNVTHRLAIDKRFRVFTKPVDPDEVPDYVTVIKQPMDLSSVISKIDLHKYLTVKDYLRDIDLICSNALEYNPDRDPGDRLIRHRACALRDTAYAIIKEELDEDFEQLCEEIQESRKKRGCSSSKYAPSYYHVMPKQNSTLVGDKRSDPEQNEKLKTPSTPVACSTPAQLKRKIRKKSNWYLGTIKKRRKISQAKDDSQNAIDHKIESDTEETQDTSVDHNETGNTGESSVEENEKQQNASESKLELRNNSNTCNIENELEDSRKTTACTELRDKIACNGDASSSQIIHISDENEGKEMCVLRMTRARRSQVEQQQLITVEKALAILSQPTPSLVVDHERLKNLLKTVVKKSQNYNIFQLENLYAVISQCIYRHRKDHDKTSLIQKMEQEVENFSCSR
modifications: left off: tagGFP, end not stated, kept
notes: TagGFP-tagged ATPase mutant ATAD2 (K473T, E532Q) expressed in MCF7 cells
Regarding B2, the “EdU incorporation (normalized to control)” value in the assay with MCF7 cells [1] turned out to be 0.38 ± 0.09. Besides, the “half recovery time (recovery t1/2)” value with MCF7 cells [2] was found to be 2.514 s.
